# Columns and labels:
# [1] = target: p150^Glued subunit of dynactin (bovine); assay: co-sedimentation
# [2] = target: dynamitin (p50) subunit of dynactin, endogenous bovine (bovine) (UniProt Q3ZCF0); assay: co-sedimentation
# [3] = target: p62 subunit of dynactin (bovine); assay: ion exchange chromatography
# Chain of p62 subunit of dynactin (bovine) (Q9QUR2 whole entry): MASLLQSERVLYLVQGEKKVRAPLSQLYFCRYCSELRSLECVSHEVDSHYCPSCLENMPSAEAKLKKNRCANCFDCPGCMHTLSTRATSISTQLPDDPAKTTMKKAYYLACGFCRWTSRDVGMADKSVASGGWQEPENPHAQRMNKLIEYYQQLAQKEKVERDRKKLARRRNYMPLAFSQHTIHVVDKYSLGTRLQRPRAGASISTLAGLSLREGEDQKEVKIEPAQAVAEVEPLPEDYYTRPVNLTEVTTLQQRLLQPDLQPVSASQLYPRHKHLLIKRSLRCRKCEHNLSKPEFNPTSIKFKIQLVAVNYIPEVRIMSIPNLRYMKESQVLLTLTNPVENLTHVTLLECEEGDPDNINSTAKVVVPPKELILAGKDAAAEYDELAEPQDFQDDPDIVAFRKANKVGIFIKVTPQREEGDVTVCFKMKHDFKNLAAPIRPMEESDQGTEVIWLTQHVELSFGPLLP
substance,measurement,setting,value
"dynamitin (p50) subunit of dynactin, endogenous bovine (from UniProt Q3ZCF0 1-403) (natural protein)",stoichiometry N,[1]; scale: dynamitin per 2 p150,2
"Arp1, actin-related protein of the dynactin minifilament (natural protein)",stoichiometry N (Arp1 per dynamitin),[2],1.97
p27 subunit of dynactin (from UniProt Q148G7 1-190) (natural protein),stoichiometry N,[3]; scale: p27 per 1 p62,1
p24 subunit of dynactin (from UniProt Q0P5A1 1-186) (natural protein),stoichiometry N (p24 per 2 p150^Glued),[1],2
same,stoichiometry N,[1]; scale: p24 per 2 p150,1
"Arp11, novel actin-related protein of the dynactin pointed-end complex (from UniProt Q3ZBD2 1-417) (natural protein)",stoichiometry N,[3]; scale: Arp11 per 1 p62,1
p25 subunit of dynactin (from UniProt Q9QZB9 1-182) (natural protein),stoichiometry N,[3]; scale: p25 per 1 p62,1

# Reference: PMC2174220
